Test results from the nanobody polyreactivity screen of Harvey et al. (2022).

Experiment: yeast display, Sf9 membrane polyspecificity reagent, FACS + sequencing; frameworks hold sequencing errors
Procedure, shortened: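 A nanobody's polyreactivity label depends on the gate it was sorted from. Yeast display cells were stained with 10% biotinylated, detergent-solubilized Sf9 membrane reagent for 1 hour at 4 °C, enriched on streptavidin microbeads and sorted by FACS. The low and high (top ~1%) gates were set on anti-HA fluorescence for expression and streptavidin fluorescence for reagent binding.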

Sequence	polyreactivity (PSR sort gate)
QVQLVESGGGLVQAGGSLRLSCAASGRTFGAYAMGWYRQAPGKERELVASISRSGGTTYYADSVKGRFTISRDNAKNTVYLQMNSLKPEDTAVYYCAAQYVRYGHYYWGQGTQVTVSS	high polyreactivity
QVQLVESGGGLVQAGGSLRLSCAASGFILKYYAMGWYRQAPGKERELVAAISVRGGSTYYADSVKGRFTISRDNAKNTVYLQMNSLKPEDTAVYYCAARHRYGGAFVDYDYWGQGTQVTVSS	high polyreactivity
QVQLVESGGGLVQAGGSLRLSCAASGFIFAQNAMGWSRQAPGTERELVAAITSSGVSTYYADSVKGRFTISRDNAKNTVYLQMNSLKPEDTAVYYCNRTPRYTIRYGYWGQGTQVTVSS	high polyreactivity
QVQLVESGGGLVQAGGSLRLSCAASGRIFPFNAMGWYRQAPGKERELVAAISSSGGSTYYADSVKGRFTISRDNAKNTVYLQMNSLKPEDTAVYSCAATRNSDGMGYWGQGTEVTVSS	low polyreactivity
QVQLVESGGGLVQAGGSLRLSCAASGRIFGGYALGWYRQAPGKERELVAAITRSGGSTYYADSVKGRFTISRDNAKNTVYVQMNSLKPEDTAVYYCAARNYYSWRYDYWGQGTQVTVSS	high polyreactivity
QVQLVESGGGLVQAGGSLRLSCAASGFISRNAMGWYRQAPGKERELVAAITRGGSTNYADSVKGRFTISRDNAKNTVYLQMNRLKPEDTAVYYCNKQRQGNSRSYYQTYYGMYYWGQGTQVTVSS	high polyreactivity
QVQLVESGGGLVQAGGSLRLSCAASGNIFRGYTMGWSRQAPGKEREWVATISWNGVSTFYADSVKGRFTISRDNAKNTVYVQMNSLKPEDTAVYYCAAYYPSHDYSGFWSDTYEYWGQGTQVTVSS	low polyreactivity
QVQLVESGGGLVQAGGSLRLSCAASGLTFAINTMGWYRQAPGKERELVAAITGSGGSTYYADSVKGRFTISRDNAKNTVYLQMNSLKPEDTAVYYCAAELLYVQGYAMDYWGQGTQVTVSS	low polyreactivity
QVQLVESGGGLVQAGGSLRLSCAASGGTFPLYAMGWYRQAPGKARELVAAIRWSGGRTYYADSVKGRFTISRDNAMKTVYLQMNSLKPEDTAVYYCAADYDDGWGYDYWGQGTQVTVSS	high polyreactivity
QVQLVESGGGLVQAGGSLRLSCAASGNIFSVYAMGWYRKAPGKERELVAAISSSGGRTYYADSVKGRFTISRDNEKNTVYLHMNSLKPEDTAVYYCAARSYTGQFVYWGQGTQVTVSS	high polyreactivity
QVQLVESGGGLVQAGGSLRLSCAASGITYGRYTMGWYRQAPGKERELVAAITNGDITDYADSVKGRFTISRDNAKNTVYLQMNSLKPEDTAVYYCAALLLYQNDHWGQGTQVTVSS	high polyreactivity
QVQLVESGGGLVQAGGSLRLSCAASGRIFQVNDKGFYIQAPGKETELVASITYSGGSTYYADSVKGRFTISRDNAKITVYLQMNSLKPEDTAVYYCNKQNYVWVLVIYYYWGQGTQVTVSS	low polyreactivity
QVQLVESGGGLVQAGGSLRLSCAASGLTFYVYAMGWYRQAPGKEREFVAAISWSGTSTSYADSVKGRFTISRDNAKNTVYLQMNSLKPEDTAVYYCAADVHTPALYTYAAGDYWGQGTQVTVSS	low polyreactivity
QVQLVESGGGLVQAGGRLRLSCAASGSTNYRYAMRWYRQAPGKERELVATISRTGARTNYADSVKGRFTISRDNAKNTVYLQMNSLKPEDTAVYYCAASAPYIYYWGQGTQVTVSS	high polyreactivity
QVQLVESGGGLVQAGGSLRLSCAASGSIFYAYGMGWYRQAPGKERELVAAISSRGGSTHYADSVKGRFTISRDNAKNTVYLQMNSLKPEDTAVYYCAARHAYPYRRGDFNYWGQGTQVTVSS	high polyreactivity
QVQLVESGGGLVQAGGSLRLSCAASGRIFRTYAMGWSRQAPGKERELVAAISGSGGRTYYADSVKGRFTISRDNAKNTVYLQMNSLKPEDTAVYYCAKYVSIVRYGSTTNYDYWGQGTQVTVSS	high polyreactivity
QVQLVESGGGLVQAGGSLRLSCAASGRTFTIYTMGWYRQAPGKERELVAAISRGGRTNYADSVKGRFTISRDNAKNTVYLQMNSLKPEDTAVYYCNADGSRYYTAYRLRLPYDYWGQGTQVTVSS	high polyreactivity
QVQLVESGGGLVQAGGSLRLSCAASGSTFRLNAMGWYRQSPGKERELVAAISRGGSTNYADSVKGRFTISRDNAKNTVYLQMNSLKPEDTAVYYCATRRSYKYYWGQGTQVTVSS	high polyreactivity
QVQLVESGGGLVQAGGSLRLSCAASGSTFTRYAMGWYRQAPGKERELVAAISGGGSTNYADSVKGRFTISRDNSKNTVYLQMNSLKPEDTAVYYCAARVRTTGYSQMYYWGQGTQVTVSS	low polyreactivity
QVHLVESGGGLVQAGGSLGLSCAASGFTFANNAMGWYRQAPGKERELVAAISSSGGSTYYADSVKVRFTISRDNAKKTVYLQMNSLKPEDTAVYYCAARRRGSYYGYGYWGQGTQVTVSS	high polyreactivity
QVQLQESGGGLVQAGGSLRLSCAASGTISDRAGMGWYRQAPAKNAIVATIDRGTNTNYADSVKGRFTISRVNAKNTVYLQMNSLKPEDTAVYNCAADGRYYIYLDYWGQGTQVTVSS	low polyreactivity
QVQLHESGSGLVQAGGSLRLSCAASGAIFPANLMGWYRQAPGKERELVAGISYGSITYCADSVKGRFNISRDNAKHTVYLQMNSLKPEDTAVYYCEVWRPGGDEYYYWGQGTQVTVSS	low polyreactivity

Sequence	polyreactivity (PSR sort gate)
QVQLVESGGGLVQAGGSLRLTCDASGFTFPFYTMGWYRQEPGKERELVAAISASGGRTYYADSVKGRFTISRDNAKNTVYLQMNSLKPEDTGVYYCATYPTPKYFRWRGDYWGQGTQVTVSS	high polyreactivity
QVQLVESCGGLVQAGGSLRLSCAASGSTFILYAMGWYRPAPGKERELVAAISWSTGITYYADSVKGRFTISRDNAKNTVYLPMNSLKPEDTAVYYCAADAWGYHDYDASYSTGYEYWGQGTQVTVSS	high polyreactivity
QVQLVESGGGLVQAGGSLRLSCAASGFTFTRNAMGWYRQAPGKEMELVAGITFIGTSTYYADSVKGRFTISRDNAKNTVYLQMNSLKPEDTAVYYCAKEYDDYVYGYHYTRYGYWGQGTQVTVSS	low polyreactivity
QVQLVESGGGLVQAGGSLRLSCAASGSTFRYYAMGWYRPAPGKERELVAVISTSGNTYYADSVKGRFTISRDNAKNTVYLQMNSLKPEDTAVYYCAARGVGGQISQEYDYWGQGTQVTVSS	low polyreactivity
QVQLVESGGGLVQAGGSLRLSCAASGRTFVSYAMGWSRQAPGKERELVATITGSTGGTYYADSVKGRFTISRDNAKNTVYLQMNSLKPEDTAVYYCNKDYYYNPGNVASGYDYWGQGTQVTVSS	low polyreactivity
QVQLEESGGGLVQAGGSLRLSCAASGFTFNYYTMGWYTQAPGKERELVATISTRGGSTYYADSVKGRFTISRDNAKNSVYLQMNSLKPEDTAVYYCNVGQKSVSSAYDYWGQGTEVTVSS	high polyreactivity
QVQLVESGGGLVQAGGSLRLSCAASGLIFTPYAMGWYRQAPGKESELVAAISSSGGTTYYADSVKGRFTISRDNAKNTVYLQMKSLKPEDTAVYYCAADTGYPGYYPEYYWGQGTQVTVSS	high polyreactivity
QVQLVESGAGLVQAGGSLRLSCAASGSIFGPNAMGWYRQAPGKERELVAAISWSGASTYYADSVKGRFTISRDNAMNTVYLQMNSLKPEDTAVYYCAADYYGVSGSGYGYWGQGTQVTVSS	low polyreactivity
QVQLVESGGGLVQAGGSLRLSCAASGIIFSLYAMGAYIQATGKERELVAAITTGGRTYYADSVKGRFTISRDNAKYSVYLQMNSLKPEDTAVYYCAALGPWQGGTTLSTNRGYWGQGTQVTVSS	high polyreactivity
QVQLVESGGGLVHAGGSLRLSCAASGSTFWANAMGWYRPPPGKERELVAAITSTGITYYADSVKGRFTISRDNAKNTVYLQMNSLKPEDTAVYYCAADGFRYSVYLIRNPMDYWGQGTQVTVSS	low polyreactivity
PVQLVESGGGLVQAGGSLRLSCAASGSTFKRYAMGWYRQAPGKERELVAAISSGGTTYYADSVTGRFTISRDNAKNTVYLQMISLKPEDSAVYDCIARKYGWDQRILIYDYWGQGTQVTVSS	high polyreactivity
QVQLVESGGGLVQAGGSLRLSCAASGRTFIGNAMGWSRQAPGKERELVAGIDSDGSTNYADSVKGRFTISRDNAKNTVYLQMNSLKPEDTAVYYCAAVQGYRFYEYYYWGQGTQVTVSS	low polyreactivity
QVQLVESGGGLVQAGGSLRLSCAASGFTLFDYAMGWYRQAPGKERELVAAITTSGGSTYYADSVKGRFTISRDNAKNTVYLQMNSLKPEDTAVYYCAVEYMLTYYYYVSYEYYYWGQGTQVTVSS	high polyreactivity
QVQLVESGGGLVQAGGSLRLSCAASGIFVYYAMGWYRQSPGKERELVAAISSSGGSTYYADSVKGRFTISRDNAKNTVYLQMNSLKREDTAVYYCNTLAYPSDRFEYWGQGTQVTVSS	high polyreactivity
QGQLVESGGGLVQAGCSLRLSCAASGSTFRRYAMGWDRQAPGKERELVATINWSGGRTYYADSVKGRFTISRDNAKKTGSLQMNRLKPVDTAVYYCAKADYYGYHYYYWGQGTQVTVSS	high polyreactivity
QVQLVESGGGLVQAGGSLRLSCAASGISFSANAMGWYRQAPGKEREWVAAISASGGSTRYADSVKGRFTISRDNAKNTVYLQMNSLKPEDTAVYYCATRRTSRSKWRHYWGQGTQVTVSS	high polyreactivity
QVQLVESGGGLVQAGGSLRLSCAASGLIFGSYVMGWYSQAPGKERELVAAISTSGGRTYYADSVKGRFTISRDNATNTVYLQMNSLKPEDTAVYFCAASRWHGYNYWGQGTQVTVSS	high polyreactivity
QVQLVESGGGLVQAGGSLRLSCAASGFTFSGYDIGWYRQAPGKERELVAGISSGGVSTTYADSVKGRFTISRDNAKNTVYLQMNSLKPEDTAVYYCNAEWTSFDWGQGTQVTVSS	low polyreactivity
QVQFVESGGGLVQAGGSLRLSCAASGSIFSSYAMGWYRQAPGKERELVAVINSGGSTNYADSVKGRFTISRDNAKNTVYLHMNSLKPEDTAVYYCNAYGGTFHNTAAEFDYWGQGTQVTVSS	low polyreactivity
QVQLVESGGGLVQAGGSLRLSCAASGRIFGPYTMGWYRQAPGKERELVAAITGRVVSTYYADSVKGRFTISRDNAKNTVYLQMNSLKPEDTAVYYCAKASHYWSQRFGYWGQGTQVTVSS	high polyreactivity
QVQLVESGGGLVQAGGSLRLSCAASGRTFLVYARGWYRQAPGKERELVATIRASTGSTYADSVKGRFTISRDNAKNTVYLQMNSLKPEDTAVYYCAAQPRYRHQTYNYWGQGTQVTVSS	high polyreactivity
